Experimental findings from article PMC6555819, “Comprehensive study of nuclear receptor DNA binding provides a revised framework for understanding receptor specificity” are described below.

Data set [1] addresses PPARg:RXRa (Homo sapiens, UniProt P37231;P19793 full;full). Briefly: no ligand; PBM; 180 nM : 90 nM RXRa; PBS pH 7.4, 2% milk, 0.02% Triton X-100, 1 mM DTT, BSA, 0.4 mg/ml salmon testes DNA. Conditions: tags: His kept;His cleaved; copies: 1;1; label: surface-attached array probe.
For data set [2], the target named is PPARa:RXRa (Homo sapiens, UniProt Q07869;P19793 full;full). Nature of the data set: no ligand; PBM; 270 nM : 90 nM RXRa; PBS pH 7.4, 2% milk, 0.02% Triton X-100, 1 mM DTT, BSA, 0.4 mg/ml salmon testes DNA. As to conditions: tags: GST kept;His cleaved; copies: 1;1; label: surface-attached array probe. Summed up: (§1)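 Regression normalization was applied to scanned fluorescence from custom Agilent 4×180K protein-binding microarrays. Before scanning, arrays were incubated 1 h with ligand-free nuclear receptor dimers, and binding was detected with antibodies against each partner (one per run). Binding z-scores use the random background probes as reference.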
Sequence of PPARa:RXRa (Q07869 whole entry, chain 1 of 2): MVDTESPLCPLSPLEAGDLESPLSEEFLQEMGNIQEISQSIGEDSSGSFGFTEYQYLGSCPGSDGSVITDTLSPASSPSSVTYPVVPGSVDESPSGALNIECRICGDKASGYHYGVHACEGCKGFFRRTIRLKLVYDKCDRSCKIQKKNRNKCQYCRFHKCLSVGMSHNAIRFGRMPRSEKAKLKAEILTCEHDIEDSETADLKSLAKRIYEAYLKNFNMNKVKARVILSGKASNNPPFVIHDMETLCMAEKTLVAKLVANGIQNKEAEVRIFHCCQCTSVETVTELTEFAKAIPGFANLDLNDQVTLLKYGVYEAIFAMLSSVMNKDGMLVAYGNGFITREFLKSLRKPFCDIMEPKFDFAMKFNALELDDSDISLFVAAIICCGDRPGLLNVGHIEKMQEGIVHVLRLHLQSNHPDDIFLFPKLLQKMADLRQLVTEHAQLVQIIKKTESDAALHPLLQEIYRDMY
Sequence of PPARa:RXRa (P19793 whole entry, chain 2 of 2): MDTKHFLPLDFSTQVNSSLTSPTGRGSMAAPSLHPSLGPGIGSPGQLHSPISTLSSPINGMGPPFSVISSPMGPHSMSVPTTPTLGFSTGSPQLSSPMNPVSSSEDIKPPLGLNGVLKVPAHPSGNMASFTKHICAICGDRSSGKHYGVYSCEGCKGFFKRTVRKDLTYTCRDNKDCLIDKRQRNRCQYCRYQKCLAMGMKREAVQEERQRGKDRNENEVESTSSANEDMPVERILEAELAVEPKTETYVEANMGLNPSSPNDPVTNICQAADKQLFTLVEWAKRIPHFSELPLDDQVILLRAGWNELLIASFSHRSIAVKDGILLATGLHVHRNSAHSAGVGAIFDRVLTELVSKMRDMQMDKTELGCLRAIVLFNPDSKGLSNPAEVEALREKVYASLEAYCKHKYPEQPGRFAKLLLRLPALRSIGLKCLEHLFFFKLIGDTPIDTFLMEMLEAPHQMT

Data set [3] addresses RARg:RXRa (Homo sapiens, UniProt P13631;P19793 full;full). The data set is described as above. Conditions: tags: His kept;His cleaved; copies: 1;1; label: surface-attached array probe. The procedure, abridged:
as §1

Sequence of PPARg:RXRa (P37231 29-505, chain 1 of 2): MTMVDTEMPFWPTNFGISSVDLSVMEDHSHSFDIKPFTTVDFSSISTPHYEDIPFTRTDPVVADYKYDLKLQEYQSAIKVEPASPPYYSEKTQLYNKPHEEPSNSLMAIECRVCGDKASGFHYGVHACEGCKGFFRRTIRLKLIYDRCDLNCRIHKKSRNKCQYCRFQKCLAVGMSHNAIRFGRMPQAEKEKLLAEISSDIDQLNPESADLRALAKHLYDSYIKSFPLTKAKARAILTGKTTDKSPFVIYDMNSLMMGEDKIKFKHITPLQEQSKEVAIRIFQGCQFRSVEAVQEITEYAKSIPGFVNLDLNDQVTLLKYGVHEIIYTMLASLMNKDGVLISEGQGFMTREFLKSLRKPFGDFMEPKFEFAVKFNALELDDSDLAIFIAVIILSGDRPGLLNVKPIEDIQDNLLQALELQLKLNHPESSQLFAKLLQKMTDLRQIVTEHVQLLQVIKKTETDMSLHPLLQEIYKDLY
Sequence of PPARg:RXRa (P19793 whole entry, chain 2 of 2): as the sequence (P19793 whole entry, chain 2 of 2) above
Sequence of RARg:RXRa (P13631 whole entry, chain 1 of 2): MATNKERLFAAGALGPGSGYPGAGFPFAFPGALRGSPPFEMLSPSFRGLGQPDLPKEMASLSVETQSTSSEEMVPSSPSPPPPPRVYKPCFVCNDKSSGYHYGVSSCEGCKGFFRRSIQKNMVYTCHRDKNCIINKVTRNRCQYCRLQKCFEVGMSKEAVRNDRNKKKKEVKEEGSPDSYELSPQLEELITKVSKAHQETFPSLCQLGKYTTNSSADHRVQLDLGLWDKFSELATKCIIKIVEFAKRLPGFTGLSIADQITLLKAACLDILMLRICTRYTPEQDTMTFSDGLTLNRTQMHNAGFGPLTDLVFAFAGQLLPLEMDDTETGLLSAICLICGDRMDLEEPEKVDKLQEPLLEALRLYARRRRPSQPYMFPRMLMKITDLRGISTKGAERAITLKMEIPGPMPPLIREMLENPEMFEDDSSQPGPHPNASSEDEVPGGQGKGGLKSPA
Sequence of RARg:RXRa (P19793 whole entry, chain 2 of 2): as the sequence (P19793 whole entry, chain 2 of 2) above

B1: NRC3_wobSeed41_DR1_T13G_o1 (dsDNA)
DNA 1: GCATATGTAGGTGAAGGGTCATTCAGGTTGGTTCGCGCGATTGACAGCGTAGAATGAAGG
DNA 2: CCTTCATTCTACGCTGTCAATCGCGCGAACCAACCTGAATGACCCTTCACCTACATATGC
Consider B1, for which the figures for the binding signal in data set [1] and in data set [2] were 12.8 PBM z-score against 500 random probes and 7.07 PBM z-score against 500 random probes, respectively.

B2: NRC3_wobSeed15_DR0_G11T_o1 (dsDNA)
DNA 1: GCCGAACTAGTTCAAGGACAGTGAATCTCCGCACGCGCGATTGACAGCGTAGAATGAAGG
DNA 2: CCTTCATTCTACGCTGTCAATCGCGCGTGCGGAGATTCACTGTCCTTGAACTAGTTCGGC
On to B2, for which the binding signal in data set [1] is 0.49 PBM z-score against 500 random probes; in data set [2], 0.44 PBM z-score against 500 random probes.

B3: NRC3_wobSeed35_DR1_T11G_o1 (dsDNA)
DNA 1: GCGCTATTAGGTGAAAGGGCAACCGAATGATTCTCGGCGATTGACAGCGTAGAATGAAGG
DNA 2: CCTTCATTCTACGCTGTCAATCGCCGAGAATCATTCGGTTGCCCTTTCACCTAATAGCGC
For B3, in data set [1], the binding signal is 9.85 PBM z-score against 500 random probes.

B4: NRC3_wobSeed49_DR2_A15C_o1 (dsDNA)
DNA 1: GCCAAACTAGGTCACGAGGTCAAAGTCCGCTTCCCGGCGATTGACAGCGTAGAATGAAGG
DNA 2: CCTTCATTCTACGCTGTCAATCGCCGGGAAGCGGACTTTGACCTCGTGACCTAGTTTGGC
As to B4, the binding signal in data set [1] was 10.5 PBM z-score against 500 random probes.

B5: NRC3_wobSeed39_DR1_A19G_o1 (dsDNA)
DNA 1: GCCGAACTAGGTCAAAGGGCAGTGAAAGGCGACGTAGCGATTGACAGCGTAGAATGAAGG
DNA 2: CCTTCATTCTACGCTGTCAATCGCTACGTCGCCTTTCACTGCCCTTTGACCTAGTTCGGC
For B5, the binding signal in data set [1] is 12.3 PBM z-score against 500 random probes; in data set [2] it was 6.69 PBM z-score against 500 random probes.

B6: NRC3_wobSeed47_DR1_G8T_o1 (dsDNA)
DNA 1: GCGGAACTAGGGCAAAGTTGATAGCATCTGTCGACGGCGATTGACAGCGTAGAATGAAGG
DNA 2: CCTTCATTCTACGCTGTCAATCGCCGTCGACAGATGCTATCAACTTTGCCCTAGTTCCGC
As to B6, the binding signal in data set [1] is 10 PBM z-score against 500 random probes.

B7: NRC3_wobSeed33_DR1_C5A_o1 (dsDNA)
DNA 1: GCATATCTAGGTAAAAGTTCAGTGAATCCCGAGGATGCGATTGACAGCGTAGAATGAAGG
DNA 2: CCTTCATTCTACGCTGTCAATCGCATCCTCGGGATTCACTGAACTTTTACCTAGATATGC
For B7, the binding signal in data set [1] is 10.1 PBM z-score against 500 random probes.

B8: NRC3_wobSeed121_DR5_C7G_o1 (dsDNA)
DNA 1: GCCAAAGTAGGTCACCGGAAGGTCAAAGTCCGCATGGCGATTGACAGCGTAGAATGAAGG
DNA 2: CCTTCATTCTACGCTGTCAATCGCCATGCGGACTTTGACCTTCCGGTGACCTACTTTGGC
For B8, in data set [1], the binding signal is 10.4 PBM z-score against 500 random probes.

B9: NRC3_wobSeed121_DR5_A4T_o1 (dsDNA)
DNA 1: GCCTAACTAGGTCACCGGAAGGTCAAAGTCCGCATGGCGATTGACAGCGTAGAATGAAGG
DNA 2: CCTTCATTCTACGCTGTCAATCGCCATGCGGACTTTGACCTTCCGGTGACCTAGTTAGGC
For the molecule B9, the binding signal in data set [1] is 10.2 PBM z-score against 500 random probes.

B10: NRC3_wobSeed65_DR2_T13C_o1 (dsDNA)
DNA 1: GCATATGTAGGTCATCGGGTCATTCAGTTTGCGCATGCGATTGACAGCGTAGAATGAAGG
DNA 2: CCTTCATTCTACGCTGTCAATCGCATGCGCAAACTGAATGACCCGATGACCTACATATGC
For the molecule B10, the binding signal in data set [1] was 10.2 PBM z-score against 500 random probes.

B11: NRC3_wobSeed26_DR1_C4T_o1 (dsDNA)
DNA 1: GCTTTAGTTGGTCAAAGGTCACACACTCGAAATGCGGCGATTGACAGCGTAGAATGAAGG
DNA 2: CCTTCATTCTACGCTGTCAATCGCCGCATTTCGAGTGTGTGACCTTTGACCAACTAAAGC
Consider B11, for which the binding signal in data set [1] is 12.1 PBM z-score against 500 random probes; in data set [2], 6.88 PBM z-score against 500 random probes.

B12: NRC3_wobSeed66_DR2_C20T_o1 (dsDNA)
DNA 1: GCAATACAGGGTCACTAGGTCAGAGTAGGTACGAATGCGATTGACAGCGTAGAATGAAGG
DNA 2: CCTTCATTCTACGCTGTCAATCGCATTCGTACCTACTCTGACCTAGTGACCCTGTATTGC
For B12, the binding signal in data set [1] was 9.89 PBM z-score against 500 random probes.

B13: NRC3_wobSeed1_DR0_G23T_o1 (dsDNA)
DNA 1: GCCAAACTAGGTCAAGGTCAAATTCGGTTTGTGCCAGCGATTGACAGCGTAGAATGAAGG
DNA 2: CCTTCATTCTACGCTGTCAATCGCTGGCACAAACCGAATTTGACCTTGACCTAGTTTGGC
In the case of B13, the binding signal in data set [1] is 10.2 PBM z-score against 500 random probes.

B14: NRC3_wobSeed1_DR0_C25A_o1 (dsDNA)
DNA 1: GCCAAACTAGGTCAAGGTCAAAGTAGGTTTGTGCCAGCGATTGACAGCGTAGAATGAAGG
DNA 2: CCTTCATTCTACGCTGTCAATCGCTGGCACAAACCTACTTTGACCTTGACCTAGTTTGGC
As to B14, the binding signal in data set [1] is 9.94 PBM z-score against 500 random probes.

B15: NRC3_wobSeed1_DR0_C7G_o1 (dsDNA)
DNA 1: GCCAAAGTAGGTCAAGGTCAAAGTCGGTTTGTGCCAGCGATTGACAGCGTAGAATGAAGG
DNA 2: CCTTCATTCTACGCTGTCAATCGCTGGCACAAACCGACTTTGACCTTGACCTACTTTGGC
For the molecule B15, in data set [1], the binding signal is 10 PBM z-score against 500 random probes.

B16: NRC3_wobSeed1_DR0_A4T_o1 (dsDNA)
DNA 1: GCCTAACTAGGTCAAGGTCAAAGTCGGTTTGTGCCAGCGATTGACAGCGTAGAATGAAGG
DNA 2: CCTTCATTCTACGCTGTCAATCGCTGGCACAAACCGACTTTGACCTTGACCTAGTTAGGC
For B16, the binding signal in data set [1] is 10 PBM z-score against 500 random probes.

B17: NRC3_wobSeed28_DR1_C4T_o1 (dsDNA)
DNA 1: GCCTTACTGGGCCAAAGGTCATTGATTCCAATGCTCGCGATTGACAGCGTAGAATGAAGG
DNA 2: CCTTCATTCTACGCTGTCAATCGCGAGCATTGGAATCAATGACCTTTGGCCCAGTAAGGC
Turning to B17, the results for the binding signal in data set [1] and in data set [2] were 12.9 PBM z-score against 500 random probes and 7.1 PBM z-score against 500 random probes, respectively.

B18: NRC3_wobSeed17_DR0_T13C_o1 (dsDNA)
DNA 1: GCATATGTAGGTCAGGGTCATTCAGAAAGTAGGGAAGCGATTGACAGCGTAGAATGAAGG
DNA 2: CCTTCATTCTACGCTGTCAATCGCTTCCCTACTTTCTGAATGACCCTGACCTACATATGC
As for B18, the binding signal in data set [1] was 9.79 PBM z-score against 500 random probes.

B19: NRC3_random_hg19_249_o1 (dsDNA)
DNA 1: GCTTTCCCACAATGTGTAGTTAGAGTTTGAGTTGTGGCGATTGACAGCGTAGAATGAAGG
DNA 2: CCTTCATTCTACGCTGTCAATCGCCACAACTCAAACTCTAACTACACATTGTGGGAAAGC
In the case of B19, the figures for the binding signal in data set [1] and in data set [3] were -0.37 PBM z-score against 500 random probes and -0.1 PBM z-score against 500 random probes, respectively.

B20: NRC3_random_hg19_447_o1 (dsDNA)
DNA 1: GCCTCTCTTTCTCTCTCTCTCTCTCTCTCTCTCTCTGCGATTGACAGCGTAGAATGAAGG
DNA 2: CCTTCATTCTACGCTGTCAATCGCAGAGAGAGAGAGAGAGAGAGAGAGAGAAAGAGAGGC
Regarding B20, the binding signal in data set [1] was -3.64 PBM z-score against 500 random probes; in data set [3], -0.31 PBM z-score against 500 random probes.

B21: NRC3_wobSeed40_DR1_A4G_o1 (dsDNA)
DNA 1: GCTGGCCTAGGTCATGGGCCAGTATACCACGCGAACGCGATTGACAGCGTAGAATGAAGG
DNA 2: CCTTCATTCTACGCTGTCAATCGCGTTCGCGTGGTATACTGGCCCATGACCTAGGCCAGC
In the case of B21, the results for the binding signal in data set [1] and in data set [3] were 3.34 PBM z-score against 500 random probes and 4.24 PBM z-score against 500 random probes, respectively.

B22: NRC3_wobSeed89_DR3_T13G_o1 (dsDNA)
DNA 1: GCCTATGTAGGTGAAGGGGGTCATTCAGTTTGAAAGGCGATTGACAGCGTAGAATGAAGG
DNA 2: CCTTCATTCTACGCTGTCAATCGCCTTTCAAACTGAATGACCCCCTTCACCTACATAGGC
As to B22, the binding signal in data set [1] was 9.64 PBM z-score against 500 random probes.

B23: NRC3_wobSeed30_DR1_G16A_o1 (dsDNA)
DNA 1: GCACTAGCAGGCCAAAGGTCACTCAAGATTAGTCCGGCGATTGACAGCGTAGAATGAAGG
DNA 2: CCTTCATTCTACGCTGTCAATCGCCGGACTAATCTTGAGTGACCTTTGGCCTGCTAGTGC
Take B23: the binding signal in data set [1] was 10.2 PBM z-score against 500 random probes.

B24: NRC3_wobSeed32_DR1_T20C_o1 (dsDNA)
DNA 1: GCTCTTGTAGATCAAAGGTCAAGAAAGCCGAAGCCTGCGATTGACAGCGTAGAATGAAGG
DNA 2: CCTTCATTCTACGCTGTCAATCGCAGGCTTCGGCTTTCTTGACCTTTGATCTACAAGAGC
Regarding B24, the binding signal in data set [1] is 9.91 PBM z-score against 500 random probes.

B25: NRC3_wobSeed27_DR1_C6T_o1 (dsDNA)
DNA 1: GCACTTGGAGGACAAAGGTCAGAGCTACGCCAGTGAGCGATTGACAGCGTAGAATGAAGG
DNA 2: CCTTCATTCTACGCTGTCAATCGCTCACTGGCGTAGCTCTGACCTTTGTCCTCCAAGTGC
On to B25, for which the binding signal in data set [1] was 10.1 PBM z-score against 500 random probes.

B26: NRC3_wobSeed27_DR1_C6A_o1 (dsDNA)
DNA 1: GCACTAGGAGGACAAAGGTCAGAGCTACGCCAGTGAGCGATTGACAGCGTAGAATGAAGG
DNA 2: CCTTCATTCTACGCTGTCAATCGCTCACTGGCGTAGCTCTGACCTTTGTCCTCCTAGTGC
Take B26: in data set [1], the binding signal was 10 PBM z-score against 500 random probes.

B27: NRC3_random_hg19_62_o1 (dsDNA)
DNA 1: GCAGATGGGAGAGTTCCCTTGATTCCTTTGTGGGAGGCGATTGACAGCGTAGAATGAAGG
DNA 2: CCTTCATTCTACGCTGTCAATCGCCTCCCACAAAGGAATCAAGGGAACTCTCCCATCTGC
Consider B27, for which the figures for the binding signal in data set [1] and in data set [2] were -0.56 PBM z-score against 500 random probes and -0.1 PBM z-score against 500 random probes, respectively.
